Measurements: patent US20110142868A1 (CHIRALIX B V, published 2011)
Square brackets hold non-standard residues; d marks the D form. * marks the point of attachment. Orn(fluoroacetimidoyl) = N=C(CF)NCCC[C@H](N)C(=O)O; 2Naphthylsulfonyl = O=S(=O)(c1ccc2ccccc2c1)*; AEEA = NCCOCCOCC(=O)O

Key:
Experiment in all cases: cell-based or functional assay
recombinant human PAD2 [1] = target: T1, recombinant human PAD2 (human, UniProt Q9Y2J8 1-665)
recombinant human PAD4 [2] = target: T2, recombinant human PAD4 (human, UniProt Q9UM07 1-663)
recombinant human PAD4 [3] = target: T2, recombinant human PAD4; remark: listed apart in the source
recombinant human PAD2 [4] = target: T1, recombinant human PAD2; remark: listed apart in the source
recombinant human PAD4 [5] = target: T2, recombinant human PAD4; remark: listed apart in the source
recombinant human PAD2 [6] = target: T1, recombinant human PAD2; remark: listed apart in the source

T1 sequence (Q9Y2J8 whole entry): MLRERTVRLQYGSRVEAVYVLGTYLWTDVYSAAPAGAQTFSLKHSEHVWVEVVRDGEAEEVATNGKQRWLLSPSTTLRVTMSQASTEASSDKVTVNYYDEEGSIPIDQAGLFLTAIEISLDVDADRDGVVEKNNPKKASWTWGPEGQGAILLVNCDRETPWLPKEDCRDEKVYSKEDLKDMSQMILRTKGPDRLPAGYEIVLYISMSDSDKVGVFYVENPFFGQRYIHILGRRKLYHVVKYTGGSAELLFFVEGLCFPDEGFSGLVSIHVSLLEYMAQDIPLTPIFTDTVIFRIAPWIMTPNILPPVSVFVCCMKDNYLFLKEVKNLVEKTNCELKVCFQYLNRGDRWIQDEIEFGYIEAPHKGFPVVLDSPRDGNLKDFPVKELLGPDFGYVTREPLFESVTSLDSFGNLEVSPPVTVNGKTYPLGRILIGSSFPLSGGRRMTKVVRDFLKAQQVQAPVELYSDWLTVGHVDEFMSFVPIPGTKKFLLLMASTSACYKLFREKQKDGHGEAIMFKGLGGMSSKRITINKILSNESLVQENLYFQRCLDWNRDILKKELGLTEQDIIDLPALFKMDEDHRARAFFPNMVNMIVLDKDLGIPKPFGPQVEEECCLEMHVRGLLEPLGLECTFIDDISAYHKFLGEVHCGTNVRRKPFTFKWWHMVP
T2 sequence (Q9UM07 whole entry): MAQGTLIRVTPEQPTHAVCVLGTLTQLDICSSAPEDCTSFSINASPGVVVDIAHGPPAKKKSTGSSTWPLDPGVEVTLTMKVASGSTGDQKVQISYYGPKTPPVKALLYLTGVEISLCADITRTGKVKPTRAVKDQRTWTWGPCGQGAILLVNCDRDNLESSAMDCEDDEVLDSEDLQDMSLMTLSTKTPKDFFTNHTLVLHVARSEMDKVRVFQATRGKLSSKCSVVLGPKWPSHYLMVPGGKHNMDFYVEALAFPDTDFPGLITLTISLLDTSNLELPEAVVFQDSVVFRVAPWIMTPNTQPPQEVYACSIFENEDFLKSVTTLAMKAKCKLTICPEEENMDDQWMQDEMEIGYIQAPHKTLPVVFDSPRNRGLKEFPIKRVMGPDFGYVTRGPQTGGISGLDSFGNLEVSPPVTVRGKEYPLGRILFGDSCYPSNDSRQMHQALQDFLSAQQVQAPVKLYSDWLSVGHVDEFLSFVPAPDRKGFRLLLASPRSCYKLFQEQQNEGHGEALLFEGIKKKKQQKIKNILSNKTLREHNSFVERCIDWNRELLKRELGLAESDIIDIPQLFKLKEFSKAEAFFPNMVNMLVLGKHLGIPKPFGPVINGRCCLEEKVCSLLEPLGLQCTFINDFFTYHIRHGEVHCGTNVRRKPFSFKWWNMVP

B1: 0748-25FA (peptide)
peptide: Ac-KHD[Orn(fluoroacetimidoyl)]DFL-NH2
SMILES: CC(=O)N[C@@H](CCCCN)C(=O)N[C@@H](Cc1c[nH]cn1)C(=O)N[C@@H](CC(=O)O)C(=O)N[C@@H](CCCNC(=N)CF)C(=O)N[C@@H](CC(=O)O)C(=O)N[C@@H](Cc1ccccc1)C(=O)N[C@@H](CC(C)C)C(N)=O
conversion of 0708-30 by PAD2, 10 µM inhibitor (0 µM: 68) (recombinant human PAD2 [1]): 47% | conversion of 0708-30 by PAD2, 50 µM inhibitor (0 µM: 68) (recombinant human PAD2 [1]): 20% | conversion of 0708-30 by PAD2, 100 µM inhibitor (0 µM: 68) (recombinant human PAD2 [1]): 11% | conversion of 0708-30 by PAD4, 10 µM inhibitor (0 µM: 81) (recombinant human PAD4 [2]): 45% | conversion of 0708-30 by PAD4, 50 µM inhibitor (0 µM: 81) (recombinant human PAD4 [2]): 18% | conversion of 0708-30 by PAD4, 100 µM inhibitor (0 µM: 81) (recombinant human PAD4 [2]): 12%

B2: 0837-13FA (peptide)
peptide: Ac-KFD[Orn(fluoroacetimidoyl)]DFI[AEEA]-NH2
SMILES: CC[C@H](C)[C@H](NC(=O)[C@H](Cc1ccccc1)NC(=O)[C@H](CC(=O)O)NC(=O)[C@H](CCCNC(=N)CF)NC(=O)[C@H](CC(=O)O)NC(=O)[C@H](Cc1ccccc1)NC(=O)[C@H](CCCCN)NC(C)=O)C(=O)NCCOCCOCC(N)=O
Inhibition of PAD4: value at 10 µM inhibitor (0 µM: 71) (recombinant human PAD4 [3]): 48% | Inhibition of PAD4: value at 20 µM inhibitor (0 µM: 71) (recombinant human PAD4 [3]): 33% | Inhibition of PAD4: value at 40 µM inhibitor (0 µM: 71) (recombinant human PAD4 [3]): 23% | Inhibition of PAD4: value at 80 µM inhibitor (0 µM: 71) (recombinant human PAD4 [3]): 16% | Inhibition of PAD2: value at 10 µM inhibitor (0 µM: 74) (recombinant human PAD2 [4]): 43% | Inhibition of PAD2: value at 20 µM inhibitor (0 µM: 74) (recombinant human PAD2 [4]): 30% | Inhibition of PAD2: value at 40 µM inhibitor (0 µM: 74) (recombinant human PAD2 [4]): 20% | Inhibition of PAD2: value at 80 µM inhibitor (0 µM: 74) (recombinant human PAD2 [4]): 11%

B3: 0837-27FA (peptide)
peptide: 2Naphthylsulfonyl-KFD[Orn(fluoroacetimidoyl)]DFI[AEEA]-NH2
SMILES: CC[C@H](C)[C@H](NC(=O)[C@H](Cc1ccccc1)NC(=O)[C@H](CC(=O)O)NC(=O)[C@H](CCCNC(=N)CF)NC(=O)[C@H](CC(=O)O)NC(=O)[C@H](Cc1ccccc1)NC(=O)[C@H](CCCCN)NS(=O)(=O)c1ccc2ccccc2c1)C(=O)NCCOCCOCC(N)=O
Inhibition of PAD4: value at 10 µM inhibitor (0 µM: 71) (recombinant human PAD4 [3]): 35% | Inhibition of PAD4: value at 20 µM inhibitor (0 µM: 71) (recombinant human PAD4 [3]): 20% | Inhibition of PAD4: value at 40 µM inhibitor (0 µM: 71) (recombinant human PAD4 [3]): 12% | Inhibition of PAD4: value at 80 µM inhibitor (0 µM: 71) (recombinant human PAD4 [3]): 7% | Inhibition of PAD2: value at 10 µM inhibitor (0 µM: 74) (recombinant human PAD2 [4]): 24% | Inhibition of PAD2: value at 20 µM inhibitor (0 µM: 74) (recombinant human PAD2 [4]): 14% | Inhibition of PAD2: value at 40 µM inhibitor (0 µM: 74) (recombinant human PAD2 [4]): 7% | Inhibition of PAD2: value at 80 µM inhibitor (0 µM: 74) (recombinant human PAD2 [4]): 4%

2Naphthylsulfonyl-KFD[Orn(fluoroacetimidoyl)]DFI-NH2 [0837-29FA]
Inhibition of PAD4: value at 10 µM inhibitor (0 µM: 71) (recombinant human PAD4 [3]): 33% | Inhibition of PAD4: value at 20 µM inhibitor (0 µM: 71) (recombinant human PAD4 [3]): 16% | Inhibition of PAD4: value at 40 µM inhibitor (0 µM: 71) (recombinant human PAD4 [3]): 10% | Inhibition of PAD4: value at 80 µM inhibitor (0 µM: 71) (recombinant human PAD4 [3]): 5% | Inhibition of PAD2: value at 10 µM inhibitor (0 µM: 74) (recombinant human PAD2 [4]): 16% | Inhibition of PAD2: value at 20 µM inhibitor (0 µM: 74) (recombinant human PAD2 [4]): 9% | Inhibition of PAD2: value at 40 µM inhibitor (0 µM: 74) (recombinant human PAD2 [4]): 5% | Inhibition of PAD2: value at 80 µM inhibitor (0 µM: 74) (recombinant human PAD2 [4]): 2%

B4: 0837-14FA (peptide)
peptide: Ac-KWH[Orn(fluoroacetimidoyl)]DFF[AEEA]-NH2
SMILES: CC(=O)N[C@@H](CCCCN)C(=O)N[C@@H](Cc1c[nH]c2ccccc12)C(=O)N[C@@H](Cc1c[nH]cn1)C(=O)N[C@@H](CCCNC(=N)CF)C(=O)N[C@@H](CC(=O)O)C(=O)N[C@@H](Cc1ccccc1)C(=O)N[C@@H](Cc1ccccc1)C(=O)NCCOCCOCC(N)=O
Inhibition of PAD4: value at 10 µM inhibitor (0 µM: 67) (recombinant human PAD4 [3]): 54% | Inhibition of PAD4: value at 20 µM inhibitor (0 µM: 67) (recombinant human PAD4 [3]): 39% | Inhibition of PAD4: value at 40 µM inhibitor (0 µM: 67) (recombinant human PAD4 [3]): 29% | Inhibition of PAD4: value at 80 µM inhibitor (0 µM: 67) (recombinant human PAD4 [3]): 21% | Inhibition of PAD2: value at 10 µM inhibitor (0 µM: 76) (recombinant human PAD2 [4]): 38% | Inhibition of PAD2: value at 20 µM inhibitor (0 µM: 76) (recombinant human PAD2 [4]): 24% | Inhibition of PAD2: value at 40 µM inhibitor (0 µM: 76) (recombinant human PAD2 [4]): 14% | Inhibition of PAD2: value at 80 µM inhibitor (0 µM: 76) (recombinant human PAD2 [4]): 8%

B5: 0837-28FA (peptide)
peptide: 2Naphthylsulfonyl-KWH[Orn(fluoroacetimidoyl)]DFF[AEEA]-NH2
SMILES: N=C(CF)NCCC[C@H](NC(=O)[C@H](Cc1c[nH]cn1)NC(=O)[C@H](Cc1c[nH]c2ccccc12)NC(=O)[C@H](CCCCN)NS(=O)(=O)c1ccc2ccccc2c1)C(=O)N[C@@H](CC(=O)O)C(=O)N[C@@H](Cc1ccccc1)C(=O)N[C@@H](Cc1ccccc1)C(=O)NCCOCCOCC(N)=O
Inhibition of PAD4: value at 10 µM inhibitor (0 µM: 67) (recombinant human PAD4 [3]): 37% | Inhibition of PAD4: value at 20 µM inhibitor (0 µM: 67) (recombinant human PAD4 [3]): 23% | Inhibition of PAD4: value at 40 µM inhibitor (0 µM: 67) (recombinant human PAD4 [3]): 17% | Inhibition of PAD4: value at 80 µM inhibitor (0 µM: 67) (recombinant human PAD4 [3]): 9% | Inhibition of PAD2: value at 10 µM inhibitor (0 µM: 76) (recombinant human PAD2 [4]): 17% | Inhibition of PAD2: value at 20 µM inhibitor (0 µM: 76) (recombinant human PAD2 [4]): 8% | Inhibition of PAD2: value at 40 µM inhibitor (0 µM: 76) (recombinant human PAD2 [4]): 4% | Inhibition of PAD2: value at 80 µM inhibitor (0 µM: 76) (recombinant human PAD2 [4]): 2%

B6: 0837-30FA (peptide)
peptide: 2Naphthylsulfonyl-KWH[Orn(fluoroacetimidoyl)]DFF-NH2
SMILES: N=C(CF)NCCC[C@H](NC(=O)[C@H](Cc1c[nH]cn1)NC(=O)[C@H](Cc1c[nH]c2ccccc12)NC(=O)[C@H](CCCCN)NS(=O)(=O)c1ccc2ccccc2c1)C(=O)N[C@@H](CC(=O)O)C(=O)N[C@@H](Cc1ccccc1)C(=O)N[C@@H](Cc1ccccc1)C(N)=O
Inhibition of PAD4: value at 10 µM inhibitor (0 µM: 67) (recombinant human PAD4 [3]): 37% | Inhibition of PAD4: value at 20 µM inhibitor (0 µM: 67) (recombinant human PAD4 [3]): 24% | Inhibition of PAD4: value at 40 µM inhibitor (0 µM: 67) (recombinant human PAD4 [3]): 13% | Inhibition of PAD4: value at 80 µM inhibitor (0 µM: 67) (recombinant human PAD4 [3]): 7% | Inhibition of PAD2: value at 10 µM inhibitor (0 µM: 76) (recombinant human PAD2 [4]): 9% | Inhibition of PAD2: value at 20 µM inhibitor (0 µM: 76) (recombinant human PAD2 [4]): 3% | Inhibition of PAD2: value at 40 µM inhibitor (0 µM: 76) (recombinant human PAD2 [4]): 2% | Inhibition of PAD2: value at 80 µM inhibitor (0 µM: 76) (recombinant human PAD2 [4]): 1%

B7: 0741-03FA (peptide)
peptide: Ac-FFDSHKFD[Orn(fluoroacetimidoyl)]DFIYSD-NH2
SMILES: CC[C@H](C)[C@H](NC(=O)[C@H](Cc1ccccc1)NC(=O)[C@H](CC(=O)O)NC(=O)[C@H](CCCNC(=N)CF)NC(=O)[C@H](CC(=O)O)NC(=O)[C@H](Cc1ccccc1)NC(=O)[C@H](CCCCN)NC(=O)[C@H](Cc1c[nH]cn1)NC(=O)[C@H](CO)NC(=O)[C@H](CC(=O)O)NC(=O)[C@H](Cc1ccccc1)NC(=O)[C@H](Cc1ccccc1)NC(C)=O)C(=O)N[C@@H](Cc1ccc(O)cc1)C(=O)N[C@@H](CO)C(=O)N[C@@H](CC(=O)O)C(N)=O
conversion of 0708-30 by PAD4, 10 µM inhibitor (recombinant human PAD4 [5]): 45% | conversion of 0708-30 by PAD4, 50 µM inhibitor (recombinant human PAD4 [5]): 12% | conversion of 0708-30 by PAD4, 100 µM inhibitor (recombinant human PAD4 [5]): 9% | conversion of 0708-30 by PAD2, 10 µM inhibitor (recombinant human PAD2 [6]): 39% | conversion of 0708-30 by PAD2, 50 µM inhibitor (recombinant human PAD2 [6]): 13% | conversion of 0708-30 by PAD2, 100 µM inhibitor (recombinant human PAD2 [6]): 6%

B8: 0748-01FA (peptide)
peptide: Ac-HFD[Orn(fluoroacetimidoyl)]EWI-NH2
SMILES: CC[C@H](C)[C@H](NC(=O)[C@H](Cc1c[nH]c2ccccc12)NC(=O)[C@H](CCC(=O)O)NC(=O)[C@H](CCCNC(=N)CF)NC(=O)[C@H](CC(=O)O)NC(=O)[C@H](Cc1ccccc1)NC(=O)[C@H](Cc1c[nH]cn1)NC(C)=O)C(N)=O
conversion of 0708-30 by PAD2, 10 µM inhibitor (0 µM: 68) (recombinant human PAD2 [1]): 67% | conversion of 0708-30 by PAD2, 50 µM inhibitor (0 µM: 68) (recombinant human PAD2 [1]): 36% | conversion of 0708-30 by PAD2, 100 µM inhibitor (0 µM: 68) (recombinant human PAD2 [1]): 21% | conversion of 0708-30 by PAD4, 10 µM inhibitor (0 µM: 81) (recombinant human PAD4 [2]): 50% | conversion of 0708-30 by PAD4, 50 µM inhibitor (0 µM: 81) (recombinant human PAD4 [2]): 25% | conversion of 0708-30 by PAD4, 100 µM inhibitor (0 µM: 81) (recombinant human PAD4 [2]): 12%
